Earlier results as cited in PMC7900953, “Location of a single histidine within peptide carriers increases mRNA delivery” (The Journal of Gene Medicine, 2020).
Where no end group is shown, it is not given here.

Test system: human cells
Settings: cited from earlier work

For “H3k4b (KHHHKHHHKHHHKHHHK; also: four-branched lysine core)”, which “Cytotoxicity to human cells” value is on record?
Its value is “no observed cytotoxicity to human cells”.
